B1: Isoform 2 of Bardet-Biedl syndrome 7 protein (Homo sapiens), Q8IWZ6-2 (parent)
chain: MDLILNRMDYLQVGVTSQKTMKLIPASRHRATQKVVIGDHDGVVMCFGMKKGEAAAVFKTLPGPKIARLELGGVINTPQEKIFIAAASEIRGFTKRGKQFLSFETNLTESIKAMHISGSDLFLSASYIYNHYCDCKDQHYYLSGDKINDVICLPVERLSRITPVLACQDRVLRVLQGSDVMYAVEVPGPPTVLALHNGNGGDSGEDLLFGTSDGKLALIQITTSKPVRKWEIQNEKKRGGILCIDSFDIVGDGVKDLLVGRDDGMVEVYSFDNANEPVLRFDQMLSESVTSIQGGCVGKDSYDEIVVSTYSGWVTGLTTEPIHKESGPGEELKINQEMQNKISSLRNELEHLQYKVLQERENYQQSSQSSKAKSAVPSFGINDKFTLNKDDASYSLILEVQTAIDNVLIQSDVPIDLLDVDKNSAVVSFSSCDSESNDNFLLATYRCQADTTRLELKIRSIEGQYGTLQAYVTPRIQPKTCQVRQYHIKPLSLHQRTHFIDHDRPMNTLTLTGQFSFAEVHSWVVFCLPEVPEKPPAGECVTFYFQNTFLDTQLESTYRKGEGVFKSDNISTISILKDVLSKEATKRKINLNISYEINEVSVKHTLKLIHPKLEYQLLLAKKVQLIDALKELQIHEGNTNFLIPEYHCILEEADHLQEEYKKQPAHLERLYG
partner: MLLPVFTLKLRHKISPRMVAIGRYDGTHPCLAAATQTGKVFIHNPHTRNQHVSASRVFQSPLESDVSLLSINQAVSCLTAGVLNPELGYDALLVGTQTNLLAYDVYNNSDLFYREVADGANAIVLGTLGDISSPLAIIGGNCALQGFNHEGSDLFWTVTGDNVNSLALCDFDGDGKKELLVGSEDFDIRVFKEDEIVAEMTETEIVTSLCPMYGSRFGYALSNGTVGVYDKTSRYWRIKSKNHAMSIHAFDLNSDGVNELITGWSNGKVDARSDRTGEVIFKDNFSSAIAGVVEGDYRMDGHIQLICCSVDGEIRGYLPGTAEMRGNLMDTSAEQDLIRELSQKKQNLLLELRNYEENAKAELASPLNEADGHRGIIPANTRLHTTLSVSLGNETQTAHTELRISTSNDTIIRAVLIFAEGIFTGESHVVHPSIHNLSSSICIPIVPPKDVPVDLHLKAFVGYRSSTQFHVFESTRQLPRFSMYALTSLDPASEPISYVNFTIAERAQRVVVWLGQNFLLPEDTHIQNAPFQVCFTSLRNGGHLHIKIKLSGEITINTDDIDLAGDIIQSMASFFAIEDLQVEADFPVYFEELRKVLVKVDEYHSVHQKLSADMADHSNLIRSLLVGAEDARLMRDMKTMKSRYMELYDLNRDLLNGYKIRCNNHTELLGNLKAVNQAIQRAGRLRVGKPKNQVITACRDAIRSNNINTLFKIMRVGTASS

Variants of: B1
Details: with bbs2_human BBS2, Q9BXC9

Effect of a mutation on the interaction, disrupting interaction strength:
E614A
Q616D
Q624L
Q624S
Q624Y

Effect of a mutation on the interaction, with no effect:
L606A
L606E
L606K
K607A
K607E
L608A
L608E
L608K
I609A
I609E
I609K
H610A
H610E
H610K
P611A
P611E
P611K
K612A
K612E
L613A
L613E
L613K
E614K
Y615A
Y615E
Y615K
Q616A
Q616E
Q616K
L617A
L617E
L617K
L618A
L618E
L618K
L619A
L619E
L619K
A620E
A620K
K621A
K621E
K622A
K622E
V623A
V623E
V623K
Q624A
Q624E
Q624K
L625A
L625E
L625K
I626A
I626E
I626K
D627A
D627E
D627K
A628E
A628K
L629A
L629E
L629K
K630A
K630E
E631A
E631K
L632A
L632E
L632K
Q633A
Q633E
Q633K
I634A
I634E
I634K
H635A
H635E
H635K
E636A
E636K
G637A
G637E
G637K
N638A
N638E

— IntAct's records for PubMed 29039417
